From patent US20240374585A1, “EPITHELIAL SODIUM CHANNEL (ENAC) INHIBITOR CONJUGATES AND METHODS FOR USE THEREOF” (Lung Therapeutics, Inc., priority 2021, published 2024)
Read-outs that look alike come from different tables or passages of the source.

Assay: Pharmacokinetics in blood, lung tissue and BALF of rats after intratracheal administration
Assay type: in vivo
Procedure: The pharmacokinetic profile of the conjugates of the present invention was determined in blood and lung tissue of rats.
Peptide Conj. 8 (SEQ ID NO: 45) and Conj. 9 (SEQ ID NO: 46) were formulated in 0.9% saline and intratracheally administered to 5-7 week-old rats (Sprague Dawley; male; 224-250 g). The pharmacokinetic profile of the peptide conjugates was then determined in blood and lung tissue.
For subgroup A, whole blood samples were collected from animals at 0.083, 0.25, and 0.5 hours following drug administration and for subgroup B, whole blood samples were collected at 0.75, 1, and 2 hours following drug administration for plasma analysis. Lung and bronchoalveolar lavage fluid (BALF) were collected at 0.5 and 2 hours following drug administration.
Whole blood was collected by tail nick at the predetermined time points and then maximal volume by cardiac stick for the final time point. The plasma was spun and collected within 30 minutes of collection. Upon euthanasia of the animal, a necropsy was performed and lungs harvested and weighed for analysis. After weighing the lungs, BALF was collected with 0.5 mL of 0.9% saline. The lungs were then reweighed after BALF collection. Lung, BALF, and plasma samples were frozen until analysis.
Frozen lung tissue was homogenized using a Precellys Evolution tabletop homogenizer (3×6500 rpm) with 4× dilution using normal rat plasma. 50 μL aliquots of homogenized lung tissue was then transferred into a 96 well plate for extraction with methanol. Harvested BALF was transferred in 25 μL aliquots into a 96 well plate and diluted with 25 μL of rat plasma before extraction with methanol. Plasma samples were transferred in 50 μL aliquots into a 96 well plate for extraction with methanol.
Standards were prepared by producing a working stock solution of Conj. 8 and Conj. 9 at 1 mg/mL. The Conj. 8 assay was performed using Conj. 9 as an internal standard at 1000 ng/mL. The Conj. 9 assay was performed using Conj. 8 as an internal standard at 1000 ng/mL.
Extraction was performed by direct precipitation with 3 volumes (150 μL) of methanol containing 1000 ng/ml of Conj. 8 and Conj. 9 as an internal standard. The plate was vortexed, followed by centrifugation (10 minutes at 4° C. and 2500 g) and dried down under heated nitrogen. Reconstitution was in 100 μL of initial mobile phase A (0.1% TFA: 0.1% FA in water) with 5% of mobile phase B (CAN, 0.1% TFA: 0.1% FA), before placing in an autosampler.
Plasma, lung, and BALF samples were analyzed for Conj. 8 and Conj. 9 by liquid chromatography with tandem mass spectrometry (LC/MS/MS) (API 4000; Kinetex® 2.6 μm C18 Column 50×2.1 mm; column temp.=50° C.; mobile phase A-0.1% TFA: 0.1% FA in water; mobile phase B-ACN, 0.1% TFA: 0.1% FA; flow rate-0.25 mL/min). Pharmacokinetic parameters were derived using sparse sampling noncompartmental analysis methods of Phoenix WinNonLin® version 8.0 (Certara USA, Inc.).
Tmax, the time after dosing at which the maximum concentration was observed; Cmax, the maximum observed concentration measured after dosing; AUClast, the area under the concentration versus time curve from the start of dose administration to the last observed quantifiable concentration calculated using the log/linear trapezoidal method; and MRTlast, mean residence time as defined by AUMClast/AUClast.

[1] = male, Sprague Dawley, bronchoalveolar lavage fluid (BALF), other: intratracheal; BALF; rat, IT, 5 mg/kg
[2] = male, Sprague Dawley, lung tissue, other: intratracheal; Lungs; rat, IT, 5 mg/kg
[3] = male, Sprague Dawley, lung, other: intratracheal; Lungs; rat, IT, 5 mg/kg
[4] = male, Sprague Dawley, other: intratracheal; BALF; rat, IT, 5 mg/kg
[5] = male, Sprague Dawley, other: intratracheal; Plasma; rat, IT, 5 mg/kg

## CC(=O)N[C@@H](Cc1cn(CCCCNC(N)=NC(=O)c2nc(Cl)c(N)nc2N)nn1)C(=O)NCCCCCC(=O)N[C@H](C(=O)N[C@@H](CO)C(=O)N[C@@H](CCCCN)C(=O)N[C@@H](CCCNC(=N)N)C(=O)N[C@@H](CCCNC(=N)N)C(N)=O)C(C)C [Conjugate 9, Ac-(AmilCC2-Pgy)-Ahx-VSKRR-NH2]
[1]
  MRT last: 39.8 min
male, Sprague Dawley, inhaled or intranasal; Plasma; rat, IT, 5 mg/kg
  Tmax: 30 min
[2]
  MRT last: 55.9 min
[3]
  AUC(0-t): 362 ng·h/mL
  Tmax: 30 min
male, Sprague Dawley, lung, other: intratracheal; Lungs; rat, IT, 5 mg/kg; read-out: Cmax
  Cmax: 352 ng/mL
[4]
  AUC(0-t): 2380 ng·h/mL
  Tmax: 30 min
male, Sprague Dawley, other: intratracheal; BALF; rat, IT, 5 mg/kg; read-out: Cmax
  Cmax: 4290 ng/mL
[5]
  AUC(0-t): 293 ng·h/mL
  MRT last: 29.5 min
male, Sprague Dawley, other: intratracheal; Plasma; rat, IT, 5 mg/kg; read-out: Cmax
  Cmax: 2290 ng/mL

## CC(=O)N[C@@H](Cc1cn(CCCCNC(N)=NC(=O)c2nc(Cl)c(N)nc2N)nn1)C(=O)NCCCCCC(=O)N[C@@H](C)C(=O)N[C@@H](CO)C(=O)N[C@@H](Cc1c[nH]cn1)C(=O)N[C@@H](CC(C)C)C(=O)N[C@@H](CCCNC(=N)N)C(=O)N[C@@H](CCCCN)C(=O)N[C@@H](CC(C)C)C(=O)N[C@@H](CCCNC(=N)N)C(=O)N[C@@H](CCCCN)C(=O)N[C@@H](CCCNC(=N)N)C(=O)N[C@@H](CC(C)C)C(=O)N[C@@H](CC(C)C)C(N)=O [Conjugate 8]
All plasma samples; rat, IT, 5 mg/kg
  plasma concentration (limit of quantitation): < 25 ng/mL
[1]
  MRT last: 75.6 min
male, Sprague Dawley, bronchoalveolar lavage fluid (BALF); 0.5 h; rat, IT, 5 mg/kg; read-out: BALF concentration
  level at 0.5 h: 2910 ng/mL
male, Sprague Dawley, bronchoalveolar lavage fluid (BALF); 2 h; rat, IT, 5 mg/kg; read-out: BALF concentration
  level at 2 h: 3990 ng/mL
[2]
  MRT last: 69.6 min
[3]
  AUC(0-t): 22500 ng·h/mL
  Tmax: 120 min
[4]
  AUC(0-t): 5910 ng·h/mL
  Tmax: 120 min
male, Sprague Dawley, rat, BALF, other: intratracheal, 5 mg/kg, BALF, IT, read-out: Cmax
  Cmax: 3990 ng/mL
male, Sprague Dawley, rat, lung, other: intratracheal, 5 mg/kg, Lungs, IT, read-out: Cmax
  Cmax: 13200 ng/mL
male, Sprague Dawley, rat, lung, other: intratracheal, 5 mg/kg, at both 0.5 h and 2 h, IT, read-out: approximate mean Cmax concentration in lung tissues
  Cmax: ~13000 ng/mL
